Values of other authors in paper PMC11273449.

Legend:
[1] = system: Influenza A virion (Influenza A/PR/8/34); assay: cited; settings: 5' hexynyl
[2] = molecular target: Spike S1 subunit, BA.1 (SARS-CoV-2 BA.1 (Omicron)) (UniProt P0DTC2); assay: cited; settings: 5' hexynyl

| Sequence | Kd [1] | Kd [2] |
| --- | --- | --- |
| TTTTTGGCAGGAAGACAAACAGCCAGCGTGACAGCGACGCGTAGGGACCGGCATCCGCGGGTGGTCTGTGGTGCTGT [Influenza A aptamer (particle)] | 0.055 µM |  |
| TTTTTACGCCAAGGTGTCACTCCGTAGGGTTTGGCTCCGGGCCTGGCGTCGGTCGCGAAGCATCTCCTTGGCGT [Aptamer 4 (particle)] |  | 0.005 µM |
